Reference: publication PMC8152475 (Biomedicines, 2021)

How the values were obtained:
[1] = molecular target: T1, unlabeled recombinant p47phox (UniProt P14598 1-390); experiment: other fluorescence titration; settings: both partners purified
T1 sequence (looked up): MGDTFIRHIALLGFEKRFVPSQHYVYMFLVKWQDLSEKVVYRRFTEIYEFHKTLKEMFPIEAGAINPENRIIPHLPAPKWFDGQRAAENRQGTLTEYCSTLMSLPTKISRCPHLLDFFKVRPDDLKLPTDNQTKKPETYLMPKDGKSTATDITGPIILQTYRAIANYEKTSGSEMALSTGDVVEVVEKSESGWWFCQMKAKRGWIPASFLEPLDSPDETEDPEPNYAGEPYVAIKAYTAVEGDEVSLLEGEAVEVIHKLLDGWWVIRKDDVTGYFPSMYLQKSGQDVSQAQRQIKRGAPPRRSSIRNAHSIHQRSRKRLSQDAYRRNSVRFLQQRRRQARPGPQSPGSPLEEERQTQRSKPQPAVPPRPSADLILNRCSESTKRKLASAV

[2] = molecular target: T2, unlabeled recombinant TBK1 (UniProt Q9UHD2 1-729); experiment: other fluorescence titration; settings: both partners purified
T2 sequence (looked up): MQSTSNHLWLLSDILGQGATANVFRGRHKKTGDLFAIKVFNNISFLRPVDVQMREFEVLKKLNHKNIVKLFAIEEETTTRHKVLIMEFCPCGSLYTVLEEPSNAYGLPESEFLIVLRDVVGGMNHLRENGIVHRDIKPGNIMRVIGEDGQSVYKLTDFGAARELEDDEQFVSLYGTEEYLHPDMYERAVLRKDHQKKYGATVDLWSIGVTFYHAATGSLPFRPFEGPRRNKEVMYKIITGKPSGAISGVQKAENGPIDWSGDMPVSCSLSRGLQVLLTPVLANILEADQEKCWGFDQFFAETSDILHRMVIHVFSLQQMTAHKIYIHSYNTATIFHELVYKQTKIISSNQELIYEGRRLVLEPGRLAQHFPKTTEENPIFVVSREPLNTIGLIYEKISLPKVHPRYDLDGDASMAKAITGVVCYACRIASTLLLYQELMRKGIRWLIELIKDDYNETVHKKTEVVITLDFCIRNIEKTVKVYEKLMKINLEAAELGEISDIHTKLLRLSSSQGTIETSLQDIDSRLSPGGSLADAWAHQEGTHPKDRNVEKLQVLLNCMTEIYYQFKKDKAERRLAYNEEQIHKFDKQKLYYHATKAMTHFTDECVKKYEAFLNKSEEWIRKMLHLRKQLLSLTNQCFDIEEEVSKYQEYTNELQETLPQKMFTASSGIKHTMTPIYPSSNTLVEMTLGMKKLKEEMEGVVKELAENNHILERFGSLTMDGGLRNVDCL

[3] = molecular target: T3, unlabeled recombinant HK2 (UniProt P52789 1-917); experiment: other fluorescence titration; settings: both partners purified
T3 sequence (looked up): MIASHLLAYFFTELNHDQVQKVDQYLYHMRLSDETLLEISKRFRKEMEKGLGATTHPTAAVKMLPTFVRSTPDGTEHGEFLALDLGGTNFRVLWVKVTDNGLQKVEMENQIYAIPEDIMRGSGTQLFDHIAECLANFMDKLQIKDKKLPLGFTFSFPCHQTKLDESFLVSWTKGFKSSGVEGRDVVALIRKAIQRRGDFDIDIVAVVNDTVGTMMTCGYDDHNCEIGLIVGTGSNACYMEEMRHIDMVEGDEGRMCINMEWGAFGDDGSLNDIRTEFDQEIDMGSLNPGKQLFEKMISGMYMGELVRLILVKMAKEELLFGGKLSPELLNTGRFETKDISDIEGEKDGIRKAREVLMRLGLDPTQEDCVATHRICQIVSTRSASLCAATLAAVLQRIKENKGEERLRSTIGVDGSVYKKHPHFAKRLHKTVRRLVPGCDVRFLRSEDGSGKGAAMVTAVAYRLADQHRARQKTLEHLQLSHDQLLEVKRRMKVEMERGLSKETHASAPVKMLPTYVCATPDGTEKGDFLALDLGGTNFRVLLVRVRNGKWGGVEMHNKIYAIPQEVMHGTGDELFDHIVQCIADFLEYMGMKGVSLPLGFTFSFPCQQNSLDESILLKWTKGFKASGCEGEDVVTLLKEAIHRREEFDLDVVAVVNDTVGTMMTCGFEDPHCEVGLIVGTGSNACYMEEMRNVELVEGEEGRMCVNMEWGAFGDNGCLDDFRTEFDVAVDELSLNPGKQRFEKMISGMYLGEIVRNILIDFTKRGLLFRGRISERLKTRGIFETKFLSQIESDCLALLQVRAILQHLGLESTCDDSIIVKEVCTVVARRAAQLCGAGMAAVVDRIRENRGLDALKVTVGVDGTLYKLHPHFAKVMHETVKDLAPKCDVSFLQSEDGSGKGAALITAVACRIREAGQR

[4] = tested on: HLA-DR, an MHC class II cell surface receptor; settings: MPT63 and its epitope; ref [44]; cited from earlier work
[5] = tested on: p47phox; type: binding
[6] = molecular target: T4, TBK1 (Homo sapiens, UniProt Q9UHD2); type: binding
T4 sequence (Q9UHD2 1-729): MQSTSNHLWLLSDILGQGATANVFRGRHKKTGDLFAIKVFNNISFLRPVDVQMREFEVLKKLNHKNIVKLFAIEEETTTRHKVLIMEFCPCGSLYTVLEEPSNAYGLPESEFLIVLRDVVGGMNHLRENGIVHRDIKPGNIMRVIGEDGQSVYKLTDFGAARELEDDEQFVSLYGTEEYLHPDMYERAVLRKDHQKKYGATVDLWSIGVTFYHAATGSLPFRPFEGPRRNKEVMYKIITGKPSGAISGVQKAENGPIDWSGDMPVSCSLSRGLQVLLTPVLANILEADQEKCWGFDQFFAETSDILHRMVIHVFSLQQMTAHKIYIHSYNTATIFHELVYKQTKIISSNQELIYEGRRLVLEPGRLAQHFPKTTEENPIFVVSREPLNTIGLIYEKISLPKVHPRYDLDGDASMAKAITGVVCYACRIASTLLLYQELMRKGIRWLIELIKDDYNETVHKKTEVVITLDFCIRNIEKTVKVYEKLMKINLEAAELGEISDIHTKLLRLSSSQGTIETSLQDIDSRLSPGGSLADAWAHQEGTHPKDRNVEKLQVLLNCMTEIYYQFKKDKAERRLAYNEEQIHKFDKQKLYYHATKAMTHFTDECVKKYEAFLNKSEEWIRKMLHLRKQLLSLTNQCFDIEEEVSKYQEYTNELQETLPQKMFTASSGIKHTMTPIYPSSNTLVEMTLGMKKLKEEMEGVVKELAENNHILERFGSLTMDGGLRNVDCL

[7] = tested on: murine peritoneal macrophages; settings: TNF-α and IL-6 secretion, ref [9]; cited from earlier work
[8] = tested on: macrophages; settings: conformational switch dependent on the pH of the host; ref [8]; cited from earlier work
[9] = tested on: Th1 cell; settings: MPT63 and its epitope; ref [44]; cited from earlier work
[10] = tested on: p47phox; experiment: Endogenous co-immunoprecipitation with p47phox in THP-1 cells; type: binding, human; settings: rMPT63 5 μg mL^−1, IP with αHis-agarose bead
Protocol: (§1) Figure 1 TBK1 and p47phox is bound with MPT63. (A) Identification of TBK1 and p47phox by mass spectrometry analysis in THP-1 cell lysates treated with rMPT63 or rVector. (B) THP-1 cells were stimulated with rMPT63 (5 μg mL^−1) for the indicated times, followed by immunoprecipitation (IP) with αHis-agarose bead and IB with αTBK1, αP-TBK1 (S172), αp47phox, αP-p47phox (S304, 345, 359, and 370), αHis, αActin. […] (E,G) Binding mapping. Schematic diagrams of the structures of MPT63 (upper). At 48 h after transfection with mammalian glutathione S-transferase (GST) or GST-MPT63 and truncated mutant constructs together with Flag-TBK1 or V5-p47phox. 293T cells were used for GST pull down, followed by IB with αFlag or αV5. Cell lysates (WCLs) were used for IB with αFlag or αV5, αGST, and αActin. […]
(§2) Antibody binding was visualized by chemiluminescence (ECL; Millipore) and detected by a Vilber chemiluminescence analyzer (Fusion SL 3; Vilber Lourmat).
(§3) Confocal fluorescence microscopy
(§4) Immunofluorescence analysis was performed as described previously (Koh et al, 2017). […] TRAF6 or His was detected using a 1/100 dilution of the primary Ab for 1 h at 25 °C. […]
(§5) Cell viability relative to non-treated group was measured by MTT assay, as […]

[11] = tested on: TBK1; experiment: Endogenous co-immunoprecipitation with TBK1 in THP-1 cells; type: binding, human; settings: 5 μg mL^−1, IP with αHis-agarose bead
Protocol: as §1, §2, §3, §4, §5

[12] = tested on: host proteins in THP-1 macrophage cell lysates; experiment: Co-immunoprecipitation from THP-1 cell lysates with mass spectrometry identification of binding partners; parameters: species or system human

B1: fluorescently labelled MPT63 (natural protein)
chain: AYPITGKLGSELTMTDTVGQVVLGWKVSDLKSSTAVIPGYPVAGQVWEATATVNAIRGSVTPAVSQFNARTADGINYRVLWQAAGPDTISGATIPQGEQSTGKIYFDVTGPSPTIVAMNNGMEDLLIWEP
[1]
  Kd: 345 nM
[2]
  Kd: 178 nM

B2: fluorescently labelled MPT64 (natural protein)
chain: APKTYCEELKGTDTGQACQIQMSDPAYNINISLPSYYPDQKSLENYIAQTRDKFLSAATSSTPREAPYELNITSATYQSAIPPRGTQAVVLKVYQNAGGTHPTTTYKAFDWDQAYRKPITYDTLWQADTDPLPVVFPIVQGELSKQTGQQVSIAPNAGLDPVNYQNFAVTNDGVIFFFNPGELLPEAAGPTQVLVPRSAIDSMLA
[2]
  Kd: 193 nM
[3]
  Kd: 134 nM

B3: MPT63: secretory immunodominant antigen of MTB (protein)
chain: AYPITGKLGSELTMTDTVGQVVLGWKVSDLKSSTAVIPGYPVAGQVWEATATVNAIRGSVTPAVSQFNARTADGINYRVLWQAAGPDTISGATIPQGEQSTGKIYFDVTGPSPTIVAMNNGMEDLLIWEP
[4]
  binding to HLA-DR: bind promiscuously to HLA-DR
[5]
  region of MPT63 binding p47phox: The C-terminal of MPT63 was associated with p47phox, particularly the 150–159 amino acids in the C-terminal domain of MPT63 were important for binding with p47phox. Additionally, E152, D153, and E158 in MPT63 were key amino acids
[6]
  region of MPT protein binding TBK1: the N-terminal of MPT63 bound with TBK1 and 48–56 peptide was essential for the interaction between MPT63 and TBK1. Specifically, 50–56 amino acids, except G53, seemed to be fundamental for binding
[7]
  phagocytic activity: enhanced the phagocytic activity by upregulating the secretion of TNF-α and IL-6
[8]
  macrophage cell death: induced cell death of macrophages
[9]
  Th1 cell reactivity: induce a moderate Th1 cell reactivity

B4: rMPT63: recombinant MPT63, purified using a 6x His bacterially expressed system (protein)
chain: AYPITGKLGSELTMTDTVGQVVLGWKVSDLKSSTAVIPGYPVAGQVWEATATVNAIRGSVTPAVSQFNARTADGINYRVLWQAAGPDTISGATIPQGEQSTGKIYFDVTGPSPTIVAMNNGMEDLLIWEP
[10]
  endogenous interaction with p47phox and phosphorylated forms: interacted with TBK1 and p47phox and, interestingly, with their phosphorylated forms as well (S345 and S359)
[11]
  endogenous interaction with TBK1 and phosphorylated form: interacted with TBK1 and p47phox and, interestingly, with their phosphorylated forms as well
[12]
  binding partners identified by mass spectrometry: included TANK-binding kinase (TBK1, 83K), receptor-interacting serine/threonine-protein kinase 1 (RIP1, 75K), RAC-alpha serine/threonine-protein kinase (AKT, 55K), Neutrophil cytosol factor 1 (p47phox, 45K), and p38 mitogen-activated protein kinase (p38MAPK, 38K)

B5: rMPT64: recombinant MPT64, produced in a bacterially expressed system as MPT63 (protein)
chain: APKTYCEELKGTDTGQACQIQMSDPAYNINISLPSYYPDQKSLENYIAQTRDKFLSAATSSTPREAPYELNITSATYQSAIPPRGTQAVVLKVYQNAGGTHPTTTYKAFDWDQAYRKPITYDTLWQADTDPLPVVFPIVQGELSKQTGQQVSIAPNAGLDPVNYQNFAVTNDGVIFFFNPGELLPEAAGPTQVLVPRSAIDSMLA
[11]
  endogenous interaction with TBK1 and phosphorylated form: phosphorylated TBK1 (S172) also interacted with rMPT64
[12]
  binding partners identified by mass spectrometry: interacted with several host proteins, including hexokinase 2 (HK2, 102K), TBK1 (83K), protein kinase Cα (PKCα, 76K), TNF receptor associated factor 6 (TRAF6, 60K), and p38MAPK (38K)
